Measured values as given in article PMC5381946 (PLoS Pathogens, 2017).
pIC50: −log10 of the molar value.

System: c-Jun;c-Fos (;)
Test: EMSA
Conditions: EMSA: 10 mM Tris-HCl pH 7.5, 50 mM NaCl, 5 mM MgCl2, 20 min at 37 C, then 20 min with DNA, 5% native TBE-PAGE at 4 C

AP-1 oligonucleotide
pIC50 (reduced APE1 + inhibitor C10 (IC50 of the compound, not of DNA)): 4.77
pIC50 (reduced APE1 + inhibitor E3330 (IC50 of the compound, not of DNA)): 4.44
